Where “and” joins values, the source holds several entries; their conditions need not be identical. Identical values can stand only once.
Assays:
[1] = biological target: human CD2 on primary human T cells (human) (UniProt P06729); assay: flow cytometry, calculated Kd of competitor antibody; human CD4 central memory T cells
[2] = biological target: human CD2 on primary human T cells (human) (UniProt P06729); assay: flow cytometry, calculated Kd of competitor antibody; human CD4 naïve T cells
[3] = biological target: human CD2 on primary human T cells (human) (UniProt P06729); assay: flow cytometry, calculated Kd of competitor antibody; human CD8 memory T cells
[4] = biological target: human CD2 on primary human T cells (human) (UniProt P06729); assay: flow cytometry, calculated Kd of competitor antibody; human CD4 memory T cells
[5] = biological target: human CD2 on primary human T cells (human) (UniProt P06729); assay: flow cytometry, calculated Kd of competitor antibody; human CD8 naïve T cells
[6] = biological target: human CD2 on primary human T cells (human) (UniProt P06729); assay: flow cytometry, calculated Kd of competitor antibody; expanded human CD4 Treg cells
[7] = biological target: human CD2 on primary human T cells (human) (UniProt P06729); assay: flow cytometry, calculated Kd of competitor antibody; human CD4 effector memory T cells

human CD2 on primary human T cells (human), sequence (P06729 25-351): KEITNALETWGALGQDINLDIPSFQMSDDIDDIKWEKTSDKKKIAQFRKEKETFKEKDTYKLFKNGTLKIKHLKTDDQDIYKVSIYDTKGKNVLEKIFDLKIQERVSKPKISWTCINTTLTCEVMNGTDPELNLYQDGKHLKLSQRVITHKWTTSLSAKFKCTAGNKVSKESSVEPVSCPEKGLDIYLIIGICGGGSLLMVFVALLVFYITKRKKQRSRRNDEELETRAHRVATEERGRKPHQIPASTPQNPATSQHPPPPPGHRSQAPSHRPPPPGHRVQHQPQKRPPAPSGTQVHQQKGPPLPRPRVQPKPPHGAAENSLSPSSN

In the case of “anti-CD2-FITC (clone RPA2.10) (antibody)”, the Kd [1] is reported as 44.7 nM, the Kd [2] is reported as 18.2 nM and 23.8 nM and the Kd [3] is reported as 11 nM. For the same substance, the Kd [4] was 23.7 nM and 42 nM, the Kd [5] was 14.8 nM and 31 nM and the Kd [6] was 67.9 nM. For the same substance, the Kd [7] was 34 nM.

Reference: patent publication US20210032308A1
